In patent US20090215098A1, “QUANTIFICATION OF ENZYME ACTIVITY BY MASS SPECTROMETRY” (UCL BUSINESS PLC., priority 2006, published 2009):

Assays:
[1] = test system: Protein Kinase C peptide substrate (SEQ ID NO: 23)
[2] = test system: T1, PKC peptide substrate (SEQ ID NO: 12)
T1 sequence: QKRPSQRSKYL

Akt [3] = experiment: MS quantification of activity of Akt immunoprecipitates from B lymphoma cells; type: cell-based, mouse; settings: addition of PI3K inhibitor, FIG. 3B
Protocol: (§1) The activity of recombinant Akt/PKB was measured using the methods of the invention. Recombinant Akt/PKB was purchased from Upstate (Hampshire, UK). A 5.0 μL aliquot of […] (SEQ ID. NO: 7), 7.5 mM magnesium chloride, 0.15 mM EDTA, 7.5 mM β-glycerol phosphate, 0.1 mM sodium orthovanadate, and 0.1 mM DTT was mixed with 2.5 μL solution of Akt/PKB of various amounts: 0.004, 0.04, 0.2, 0.8, 4, 20, and 80 ng. The incubation time of each reaction was from between 2 minutes to 18 hours. Reactions were stopped with the addition of 7.5 μL of a 1% trifluoroacetic acid solution containing 1 pmol/μL internal standard (mass labeled SEQ ID NO: 39). Aliquots (0.5 μL out of a total of […]) from each reaction were analyzed by either MALDI-TOF MS (Ultraflex, Bruker) or LC-MS/MS (Ultimate HPLC, Dionex, connected to a Micromass/Waters Q-TOF instrument) using a nanoESI interface. Reaction products were analyzed by LC-MS/MS without further treatment. […]
(§2) Mouse WEHI-231 B lymphoma cell line was cultured as described in Cutillas et al., Mol Cell Proteomics 4:1038-51 (2005), incorporated herein in its entirety by reference. […] After centrifugation at 20,000×g, cell lysates were ready to use as enzyme sources. The enzyme activity of Akt in varying amounts of cell lysate (0.033, 0.067, 0.33, and 0.67 μg) was measured in the protocol outlined in example 2. […]

Akt [4] = experiment: MS quantification of Akt activity in B lymphoma cell lysates treated with PI3K inhibitors; type: cell-based, mouse; settings: B lymphoma cell line WEHI-231; varying concentrations of inhibitor; FIG. 3A
Protocol: as §1, §2

Akt [5] = experiment: Akt activity in B cell lysates in the presence of PI3K activators with or without inhibitor; type: cell-based, mouse; settings: PI3K activators (sodium pervanadate and anti-IgM) present; with vs without inhibitor; FIG. 3C
Protocol: as §1, §2

[6] = test system: T2, MAP Kinase peptide substrate (SEQ ID NO: 10)
T2 sequence: APRTPGGRR

[7] = test system: T3, Akt peptide substrate (SEQ ID NO: 7)
T3 sequence: RPRAATF

[8] = test system: T4, S6 Kinase/Rsk peptide substrate (SEQ ID NO: 5)
T4 sequence: RRRLSSLRA

recombinant PKC
extracted mass chromatogram of enzymatic product (LC-MS), time points 0, 10, 30, 60 min [1]: d) corresponds to phosphorylation of SEQ ID NO: 23 by PKC | extracted mass chromatogram of enzymatic product (LC-MS), time points 0, 10, 30, 60 min [2]: a) corresponds to phosphorylation of SEQ ID NO: 12 by PKC

COC[C@H]1OC(=O)c2coc3c2[C@@]1(C)C1=C(C3=O)[C@@H]2CCC(=O)[C@@]2(C)C[C@H]1OC(C)=O [WM]
Activity of Akt immunoprecipitates (Akt [3]): similarly affected | Activity of the Akt enzyme in cell lysates (Akt [4]): decreased enzyme activity | Activity of Akt in B cell lysates (Akt [5]): sensitive to the presence or absence of the inhibitor

recombinant Erk
extracted mass chromatogram of enzymatic product (LC-MS), time points 0, 10, 30, 60 min [6]: c) corresponds to phosphorylation of SEQ ID NO: 10 by Erk

recombinant Akt/PKB
enzymatic activity (phosphorylated peptide product quantified by MALDI-TOF MS or LC-MS/MS) [7]: capable of detecting enzymatic activity down to the zeptommole range

Cc1ccccc1-n1c(Cn2cnc3c(N)ncnc32)nc2cccc(C)c2c1=O [IC87114]
Activity of the Akt enzyme in cell lysates (Akt [4]): decreased enzyme activity

recombinant S6 p70 kinase
extracted mass chromatogram of enzymatic product (LC-MS), time points 0, 10, 30, 60 min [8]: b) corresponds to phosphylation of SEQ ID NO: 5 by S6 p70 kinase
